These results are taken from US20050084491A1.

The target of this assay is surface integrins on A375.S2 cells (human melanoma cells). Briefly: flow cytometry on A375.S2 cells, CNTO95 10 ug/ml, no peptide (cells only: 3.36).

For the substance CNTO95 (antibody), the Mean Channel Fluorescence amounted to 89.7.
